Measurements as given in the DeepSol protein solubility set.

Experiment: soluble on expression in E. coli; label from the status in PepcDB or PDB records

Soluble on expression in E. coli, soluble:
MSLRKVFEESKIGNIKLKNRILRSATHESMADSEGKPTEDLIKKYMELAQGEVGAIITGYTGVMQNGKSPAKNMLMLDKDENITSFKNMVNEIHKYDVPIILQIAHCGRQTSEKVTGKPTVAPSPIRDKIYRGSVPHELTDVAINEIIEAFVNAIERAIKAGFDGVELHLAHGYLLSSFLSPHMNKRKDKWGGSTENRFRIVSEIMKRARQKFKNYPILAKINGYEASKDGIKLEEAIKISKALENSGINAIEVSCGIAEEGFVTIRGKVPFDMILKCDPTMKRIPEFLKPIVKHVGKLIVKSPEPHFLYNLNNAREIKNKVTIPVIVVGGIRKFSDIEDIIAKDCDFVSMSRPFIIQPSIVKTFKEGKEKESRCINCNYCLIGVETNELKCYYGKEGHHHHHH
MAHHHHHHGHHHQLENLYFQGEETAVPENSGANTELVSGESEHSTNEADKQNEGEHARENKLEKAEGVATASETASPASNEAATTETAEAASAAKPEEKASEVVAETPSAEAKPKSDKETEAKPEATNQGDESKPAAEANKTEKEVQPDVPKNTEKTLKPKEIKFNSWEELLKWEPGAREDDAINRGSVVLASRRTGHLVNEKASKEAKVQALSNTNSKAKDHASVGGEEFKAYAFDYWQYLDSMVFWEGLVPTPDVIDAGHRNGVPVYGTLFFNWSNSIADQERFAEALKQDADGSFPIARKLVDMAKYYGYDGYFINQETTGDLVKPLGEKMRQFMLYSKEYAAKVNHPIKYSWYDAMTYNYGRYHQDGLGEYNYQFMQPEGDKVPADNFFANFNWDKAKNDYTIATANWIGRNPYDVFAGLELQQGGSYKTKVKWNDILDENGKLRLSLGLFAPDTITSLGKTGEDYHKNEDIFFTGYQGDPTGQKPGDKDWYGIANLVADRTPAVGNTFTTSFNTGHGKKWFVDGKVSKDSEWNYRSVSGVLPTWRWWQTSTGEKLRAEYDFTDAYNGGNSLKFSGDVAGKTDQDVRLYSTKLEVTEKTKLRVAHKGGKGSKVYMAFSTTPDYKFDDADAWKELTLSDNWTNEEFDLSSLAGKTIYAVKLFFEHEGAVKDYQFNLGQLTISDNHQEPQSPTSFSVVKQSLKNAQEAEAVVQFKGNKDADFYEVYEKDGDSWKLLTGSSSTTIYLPKVSRSASAQGTTQELKVVAVGKNGVRSEAATTTFDWGMTVKDTSLPKPLAENIVPGATVIDSTFPKTEGGEGIEGMLNGTITSLSDKWSSAQLSGSVDIRLTKSRTVVRWVMDHAGAGGESVNDGLMNTKDFDLYYKDADGEWKLAKEVRGNKAHVTDITLDKPITAQDWRLNVVTSDNGTPWKAIRI
MHHHHHHSSGVDLGTENLYFQSMRLLRASGRTPEAVQKLLEQGLRHSQDLAFLSMLNDIAAVPATAMPFRGYAVLGGERGGPEVQQVPAGERPLWFICSGMGTQWRGMGLSLMRLDRFRDSILRSDEAVKPFGLKVSQLLLSTDESTFDDIVHSFVSLTAIQIGLIDLLSCMGLRPDGIVGHSLGEVACGYADGCLSQEEAVLAAYWRGQCIKEAHLPPGAMAAVGLSWEECKQRCPPGVVPACHNSKDTVTISGPQAPVFEFVEQLRKEGVFAKEVRTGGMAFHSYFMEAIAPPLLQELKKVIREPKPRSARWLSTSIPEAQWHSSLARTSSAEYNVNNLVSPVLFQEALWHVPEHAVVLEIAPHALLQAVLKRGLKPSCTIIPLMKKDHRDNLEFFLAGIGRLHLSGIDANPNALFPPVEFPAPRGTPLIS
SNAMKNYTLISPCFFGMEKMLAREITNLGYEIIKTEDGRITYKTDEFGIAKSNMWLRCAERVHLKIAEFEAKSFDELFENTKRINWSRYIPYGAQFPISKASSIKSKLYSTPDVQAIVKKAIVESLKKSYLEDGLLKEDKEKYPIFVFIHKDKVTISIDTTGDALHKRGYREKANKAPIRETLAAGLIYLTPWKAGRVLVDPMCGSGTILIEAAMIGINMAPGLNREFISEKWRTLDKKIWWDVRKDAFNKIDNESKFKIYGYDIDEESIDIARENAEIAGVDEYIEFNVGDATQFKSEDEFGFIITNPPYGERLEDKDSVKQLYKELGYAFRKLKNWSYYLITSYEDFEYEFGQKADKKRKLYNGMLKTNFFQYPGPKPPRNNK
MADSGTAGGAALAAPAPGPGSGGPGPRVYFQSPPGAAGEGPGGADDEGPVRRQGKVTVKYDRKELRKRLNLEEWILEQLTRLYDCQEEEIPELEIDVDELLDMESDDARAARVKELLVDCYKPTEAFISGLLDKIRGMQKLSTPQKK
MKLKIDLNCDLGEAFGNYTFGGDQHILPLITSANIACGYHAGDEDVMNETVQLAKKNNISIGAHPGLPDLKGFGRRKMDLTPNEIYNLVIYQLGALSGFCKINHVKMMHVKPHGALYQMGARNKEIAHAIAQAVFDFDSNLIFVGLANTLLISEAELVGLKVASEVFADRRYEDDGQLVSRKKTDATITNTDEAIQQALKMVLENKVVSKNGKIIDLKADTICVHGDGKHALEFVTQIRNELMKEGIDIQSLLEHHHHHH
MGCTLSAEDKAAVERSKMIDRNLREDGERSRRELKLLLLGTGESGKSTFIKQMRIIHGSGYSDEDKRGFTKLVYQNIFTAMQAMIRAMDTLKIPYKYEHNKAHAQLVREVDVEKVSAFENPYVDAIKSLWNDPGIQECYDRRREYQLSDSTKYYLNDLDRVADPSYLPTQQDVLRVRVPTTGIIEYPFDLQSVIFRMVDVGGQRSERRKWIHCFENVTSIMFLVALSEYDQVLVESDNENRMEESKALFRTIITYPWFQNSSVILFLNKKDLLEEKIMYSHLVDYFPEYDGPQRDAQAAREFILKMFVDLNPDSDKIIYSHFTCATDTENIRFVFAAVKDTILQLNLKEYNLV
MGHHHHHHSHMKNLFLTSSFKDVVPLFTEFESNLQGKTVTFIPTASTVEEVVFYVEAGKKALEKLGLFVVELDVATESLDHIAATLRKNDFIYVTGGNTFFLLQELKRTGADKLILEEIAAGKLYIGESAGAVITSPNIAYIQSMDSPKKAEQLTNYDALNLVDFCTLPHYNNIPFKKITQKIVADYTKSLKMHPISNHEAILVRDEEVITKLANGKTD
MIIDIHGHYTTAPKALEDWRNRQIAGIKDPSVMPKVSELKISDDELQASIIENQLKKMQERGSDLTVFSPRASFMAHHIGDFNVSSTWAAICNELCYRVSQLFPDNFIGAAMLPQSPGVDPKTCIPELEKCVKEYGFVAINLNPDPSGGHWTSPPLTDRIWYPIYEKMVELEIPAMIHVSTSCNTCFHTTGAHYLNADTTAFMQCVAGDLFKDFPELKFVIPHGGGAVPYHWGRFRGLAQEMKKPLLEDHVLNNIFFDTCVYHQPGIDLLNTVIPVDNVLFASEMIGAVRGIDPRTGFYYDDTKRYIEASTILTPEEKQQIYEGNARRVYPRLDAALKAKGKLEHHHHHH
PKTQRGIYHNLKESEYVASNTDVTFFFSSELYLNKFLDGYQEYRKKFNKKIERVAVTPWNMDMLADITFYSEVEKRGFHAWLKGDNATWREVHVYALRIMTKPNTLDWSRIQKPRLRERRKSM
MSTLRVACVIPTYNGCQDLARLLDSLEIQSAPFDTLIVDSSSSDGTYELALARCANVLRIDSRDFNHGGTRQLMVERNADYDLYVFMTQDAYLEDAEGLARIVAPFADPQVGAVCGRQLPHLDASPLASHARLFNYPPTSQVKSLADVPALGIKTAFMSNSFSAYRREALMQVGGFPNHVILSEDMYVGAKMLLAGWKVAYEGSACCRHSHNYSLKEEFRRYFDIGVFHAREPWIRQAFGGAGGEGLRYVQSELRFLGPGRLGQWPGSLLRNAVKLFAYKLSQQERYLPLGLKRKLGMYKRYWDSPYALEHHHHHH

Soluble on expression in E. coli, not soluble:
MNKAAQKVLKLLGHTEIARVNSSCGAEQEYFLVDSNFAHQRPDLLLAGRTLFGKSPAKGQEFDDHYFGAIPERVQIFMQDVEAQLYKLGIPAKTRHNEVAPGQFEIAPVFEAANVASDHQQLIMTTLKTTAKKHGFMCLLHEKPFAGINGSGKHVNWSVGNATQGNLLDPGDSPHDNAQFLVFCGAVIRGVHKFGPLMRAVIANASNDHRLGANEAPPAIMSVYLGSQLEEVFEQIKNGTVSESKKKGVMDLGVAVLPELTKDAGDRNRTSPFAFTGNRFEFRAVGSSQSVSGPLVALNTILADSLGWIGDRLESELAKGLEISEAILTVLKEIMNDHGSVIFGGNGYSEEWHREAVQERGLRNLPTTADALPVLKEDEVVALFDQLKVLTPIELESRFEVYAEQYIKSIEV
MGSDKIHHHHHHMSMPSIDIEPTPRTLRTLALFDLDHTLLDVDSDYLWGEYIVKHNLVDEAQYRTANQKFYNDYIEGRLDATEYNEFVAQFLSSLPMGRLHELREDYIKSEIEPHIRPKAMEVLCQHVEEGHDVVIISATNDFVVSAIAKRFGIEDGNVLSTPLEIKDKRYTGKLTDKPNFKEGKIYHLDKWIGKQQLAGIHFNKTYAYSDSKNDIPLLEWADVAICVSPDAALHAHALSHRWAVEDWSI
MSESITITANSIDNPETDVRRNERFHLVPRKRLEALVTTSGLIGAMIGFYDGVKISSLRYLTENAHRMPKTVGGWYFYHKKKNYVMIVAGVKKAITTSFKYGAAVGGFFGLEYLLDISRGNTIDFFNTTTAAFLTSTFYAKYNKLSSMQTRKMIFKGTALGLTLGLIQDYLIHARKGRVWYLDRYTQQKLV
MGSDKIHHHHHHMWEIDQVRQGIVKNQIPSVNLWYGEERFFIQEALQLLKNSYLAQDPSGSGIEILSGKSTGPEQIVEIANTVSFFGGKLIIVEDIPYFQDGQGDALEPFFAYFENPNPGTCLVFLAQSVNRGRKFFKAIEKKGSILEFVSPKRQQEWSAWLDRELAARGKTMKPQVKALFLEWGGHQVGALSQELDKLALFVEGKEIRTEDVRSLVPQAVEATVFELLDAVAARSSKEAVQKLQQVLRQEHSLKVLTLLSRQVRLLLGARAMRQQGRGAEEAPRLLGIKPYEAQKIWQKAAQLTWEQLSWALRECLETDVAIKTGKGEPEFLLELMVVKFCEM
MGSDKIHHHHHHMEKKRILFLANHFITLYSFRKEMIKEMVKKGHELYLSLPKSEENKYFEDLGCHIVETEIDRRGVNPMKDLKLIYFYKKMIPLVNPDIIFSYTIKPNIYGTIASNGKYKQVCNITGTGETFLKRSIVSTICKVLYKLSIKKCYKVFFQNTGDRDFFIKEGLIRENYAMLPGSGCNLQQHVFMPLPEGDEIRFLFIGRVMKLKGIDQYLQAAEIVKKKYPNTKFYIAGWNEQLEYMKLVEEAQKTGSVEYIGFRKDIDQWIEKCHCTILPSHGGEGVPNVLLESSATGRICIGSKINGTMDVIDDGKTGYLFNTGDGEDLARQIEKFIQLSPEEKASMGKVAREKVEREFDRQIVVKAYLDEVTKC
MSSVAPSVRLFFALWPQEAVRKQLARLARRIADQCAGRCVRPENLHLTLAFIGEVDSSVVPILRQAGSAIHRTSFDLLLDKLHCWGKGSIIAAGVSQPCGELTVLVQDLRNQLSAAGVRYDTVKFVPHVTLVRNAKREPEQKHFPETIPPVAWAADRWSLVQSRPTPYGSAYQSFADWALASQDFDEHHRA
CDQFVTDALKTFENTYLNDHLPHDIHKNVMRMVNHEVSSFGVVTSAEDSYLGAVDENTLEQATWSFLKDLKRITDSDLKGELFIKELLWMLRHQKDIFNNLARQFQKEVLCPNKCGVMSQTLIWCLKCEKQLHICRKSLDCGERHIEVHRSEDLVLDCLLS
PVFILGHWRSGTTFVHNVFSCDSHFGYNTTYQTVFPHLMMWGQPFFKKNMSWLMPDKRPTDNMELAVDLPQEEEFALANMMPYTYYNFWFLPRYQQEYADKYLLFDTISEAELKVFEETFTKLIKISLWNTQGTQFLSKNPPHTGRVKELVKMFPNAKFIYLMRNPYTVFESTRSFFTNTIQPLKLQDITPAELENNILSIYAKLYHKYEADKQFIPEGNLMEVKFEDFEADAMGMTENIYHALDIPGFAEARGSIEKYVGGKKGYKKNKYKYDDRTVQLVQDHWDFALKQWDYSL
SQGRKPSSKLISFQRKLANETEIQKLNLSQSDYVVRMERVRYADKVPLVYEVASIPENLIKGFEQSEVTEHFFKTLTENGYEIGKSQQTIYARNASERVASHLEVNAGHAILALTQVSYFTDGKPFEYVHGQYVGDRFE
